Results on five molecules are retold here after patent publication US20140206607A1 (INDIANA UNIVERSITY RESEARCH AND TECHNOLOGY, published 2014).

First the molecules themselves.
B1: peptide of SEQ ID NO: 36 (peptide)
peptide: H[Aib]QGTFTSDK([γGlu-Palmitoyl])SKYLD[Aib]RAAQDFVQWLKDGRG-NH2
modifications: N-terminus assumed
SMILES: CCCCCCCCCCCCCCCC(=O)N[C@@H](CCC(=O)NCCCC[C@H](NC(=O)[C@H](CC(=O)O)NC(=O)[C@H](CO)NC(=O)[C@@H](NC(=O)[C@H](Cc1ccccc1)NC(=O)[C@@H](NC(=O)CNC(=O)[C@H](CCC(N)=O)NC(=O)C(C)(C)NC(=O)[C@@H](N)Cc1c[nH]cn1)[C@@H](C)O)[C@@H](C)O)C(=O)N[C@@H](CO)C(=O)N[C@@H](CCCCN)C(=O)N[C@@H](Cc1ccc(O)cc1)C(=O)N[C@@H](CC(C)C)C(=O)N[C@@H](CC(=O)O)C(=O)NC(C)(C)C(=O)N[C@@H](CCCNC(=N)N)C(=O)N[C@@H](C)C(=O)N[C@@H](C)C(=O)N[C@@H](CCC(N)=O)C(=O)N[C@@H](CC(=O)O)C(=O)N[C@@H](Cc1ccccc1)C(=O)N[C@H](C(=O)N[C@@H](CCC(N)=O)C(=O)N[C@@H](Cc1c[nH]c2ccccc12)C(=O)N[C@@H](CC(C)C)C(=O)N[C@@H](CCCCN)C(=O)N[C@@H](CC(=O)O)C(=O)NCC(=O)N[C@@H](CCCNC(=N)N)C(=O)NCC(N)=O)C(C)C)C(=O)O
B2: peptide of SEQ ID NO: 37 (peptide)
peptide: H[Aib]QGTFTSDK([γGlu-γGlu-Palmitoyl])SKYLD[Aib]RAAQDFVQWLMKTK[dE]-OH
modifications: N-terminus assumed
SMILES: CCCCCCCCCCCCCCCC(=O)N[C@@H](CCC(=O)N[C@@H](CCC(=O)NCCCC[C@H](NC(=O)[C@H](CC(=O)O)NC(=O)[C@H](CO)NC(=O)[C@@H](NC(=O)[C@H](Cc1ccccc1)NC(=O)[C@@H](NC(=O)CNC(=O)[C@H](CCC(N)=O)NC(=O)C(C)(C)NC(=O)[C@@H](N)Cc1c[nH]cn1)[C@@H](C)O)[C@@H](C)O)C(=O)N[C@@H](CO)C(=O)N[C@@H](CCCCN)C(=O)N[C@@H](Cc1ccc(O)cc1)C(=O)N[C@@H](CC(C)C)C(=O)N[C@@H](CC(=O)O)C(=O)NC(C)(C)C(=O)N[C@@H](CCCNC(=N)N)C(=O)N[C@@H](C)C(=O)N[C@@H](C)C(=O)N[C@@H](CCC(N)=O)C(=O)N[C@@H](CC(=O)O)C(=O)N[C@@H](Cc1ccccc1)C(=O)N[C@H](C(=O)N[C@@H](CCC(N)=O)C(=O)N[C@@H](Cc1c[nH]c2ccccc12)C(=O)N[C@@H](CC(C)C)C(=O)N[C@@H](CCSC)C(=O)N[C@@H](CCCCN)C(=O)N[C@H](C(=O)N[C@@H](CCCCN)C(=O)N[C@H](CCC(=O)O)C(=O)O)[C@@H](C)O)C(C)C)C(=O)O)C(=O)O
B3: peptide of SEQ ID NO: 33 (peptide)
peptide: H[Aib]QGTFTSDK([γGlu-γGlu-Palmitoyl])SKYLD[Aib]RAAQDFVQWLM[Orn]T[Orn]E-OH
modifications: N-terminus assumed
SMILES: CCCCCCCCCCCCCCCC(=O)N[C@@H](CCC(=O)N[C@@H](CCC(=O)NCCCC[C@H](NC(=O)[C@H](CC(=O)O)NC(=O)[C@H](CO)NC(=O)[C@@H](NC(=O)[C@H](Cc1ccccc1)NC(=O)[C@@H](NC(=O)CNC(=O)[C@H](CCC(N)=O)NC(=O)C(C)(C)NC(=O)[C@@H](N)Cc1c[nH]cn1)[C@@H](C)O)[C@@H](C)O)C(=O)N[C@@H](CO)C(=O)N[C@@H](CCCCN)C(=O)N[C@@H](Cc1ccc(O)cc1)C(=O)N[C@@H](CC(C)C)C(=O)N[C@@H](CC(=O)O)C(=O)NC(C)(C)C(=O)N[C@@H](CCCNC(=N)N)C(=O)N[C@@H](C)C(=O)N[C@@H](C)C(=O)N[C@@H](CCC(N)=O)C(=O)N[C@@H](CC(=O)O)C(=O)N[C@@H](Cc1ccccc1)C(=O)N[C@H](C(=O)N[C@@H](CCC(N)=O)C(=O)N[C@@H](Cc1c[nH]c2ccccc12)C(=O)N[C@@H](CC(C)C)C(=O)N[C@@H](CCSC)C(=O)N[C@@H](CCCN)C(=O)N[C@H](C(=O)N[C@@H](CCCN)C(=O)N[C@@H](CCC(=O)O)C(=O)O)[C@@H](C)O)C(C)C)C(=O)O)C(=O)O

Numbered stars: 1 amine (or outer) side, 2 acyl side, 3 side chain; on linkers, the order of the positions; unused ones are H or OH. Square brackets hold non-standard residues; d marks the D form. Side chains are listed from the residue outwards. Ends that are not written are not given here. * marks the point of attachment. 40K‑TE PEG = 40 kDa PEG covalently bound via thioether, formed by reaction of the free thiol of the peptide (Cys side chain) with an iodoacetic-functionalized PEG; γGlu = O=C(O)[C@H](CCC(=O)[*:2])N[*:1]; Palmitoyl = CCCCCCCCCCCCCCCC(=O)*; Orn = NCCC[C@H](N)C(=O)O; Aib = CC(C)(N)C(=O)O

Chain of glucagon receptor (P47871 26-477 limits assumed): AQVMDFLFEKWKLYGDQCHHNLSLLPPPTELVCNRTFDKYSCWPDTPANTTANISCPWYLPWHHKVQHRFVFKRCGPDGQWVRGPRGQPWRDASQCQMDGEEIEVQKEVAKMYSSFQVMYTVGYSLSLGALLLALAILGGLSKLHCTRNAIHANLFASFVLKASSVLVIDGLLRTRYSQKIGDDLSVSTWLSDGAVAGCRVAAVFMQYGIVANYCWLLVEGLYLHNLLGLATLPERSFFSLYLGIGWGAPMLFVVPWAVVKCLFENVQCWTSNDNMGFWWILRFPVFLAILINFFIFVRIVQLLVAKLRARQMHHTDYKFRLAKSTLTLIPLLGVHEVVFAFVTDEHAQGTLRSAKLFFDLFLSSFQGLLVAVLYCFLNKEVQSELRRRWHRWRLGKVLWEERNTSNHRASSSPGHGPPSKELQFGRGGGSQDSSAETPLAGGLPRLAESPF

One test has as its target glucagon receptor (UniProt P47871 26-477, limits assumed). In words: cell-based or functional assay.
For the molecule B1, the “EC50 (nM) at glucagon receptor” value came out at 0.028 nM.
Consider H[Aib]QGTFTSDYSKYLDERRA[Aib]EFVC(40K‑TE PEG)WLLDGGPSSGAPPPS-NH2 [peptide of SEQ ID NO: 35], for which the “EC50 (nM) at glucagon receptor” value worked out at 1.18 nM.
Take B2: the “EC50 (nM) at glucagon receptor” value is 0.018 nM.
The same measure, in the same setting: the same measure for B3: 0.023 nM.
Regarding H[Aib]QGTFTSDYSKYLDEKRA[Aib]EFVC(40K‑TE PEG)WLMDT-NH2 [peptide of SEQ ID NO: 15], the “EC50 (nM) at glucagon receptor” value was determined as 1.1 nM.

The target in another test is T1, GIP receptor (UniProt P48546 22-466).
T1 sequence (looked up): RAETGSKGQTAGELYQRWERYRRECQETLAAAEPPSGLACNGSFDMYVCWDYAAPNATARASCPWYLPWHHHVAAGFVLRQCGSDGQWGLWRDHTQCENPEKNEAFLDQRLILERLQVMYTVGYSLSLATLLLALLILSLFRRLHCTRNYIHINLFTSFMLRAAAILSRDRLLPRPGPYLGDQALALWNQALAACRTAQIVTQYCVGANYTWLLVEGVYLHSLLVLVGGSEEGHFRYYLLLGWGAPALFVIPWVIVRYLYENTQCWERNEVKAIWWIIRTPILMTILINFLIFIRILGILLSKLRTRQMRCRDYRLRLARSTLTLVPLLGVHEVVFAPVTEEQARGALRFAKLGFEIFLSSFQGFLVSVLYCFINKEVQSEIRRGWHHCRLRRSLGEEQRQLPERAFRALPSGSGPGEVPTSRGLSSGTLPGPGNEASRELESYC
In words: cell-based or functional assay.
Regarding B1, the “EC50 (nM) at GIP receptor” value worked out at 0.47 nM.
Take H[Aib]QGTFTSDYSKYLDERRA[Aib]EFVC(40K‑TE PEG)WLLDGGPSSGAPPPS-NH2 [peptide of SEQ ID NO: 35]: the “EC50 (nM) at GIP receptor” value was determined as 16.1 nM.
Still for that read-out and setting: the same measure for B2: 3.3 nM; for B3: 3.96 nM; for H[Aib]QGTFTSDYSKYLDEKRA[Aib]EFVC(40K‑TE PEG)WLMDT-NH2 [peptide of SEQ ID NO: 15]: 316 nM.

Another test has as its target GLP-1 receptor (UniProt P43220 24-463, limits assumed). In words: cell-based or functional assay.
Regarding B1, the “EC50 (nM) at GLP-1 receptor” value was found to be 0.003 nM.
Same read-out and setting: in the case of H[Aib]QGTFTSDYSKYLDERRA[Aib]EFVC(40K‑TE PEG)WLLDGGPSSGAPPPS-NH2 [peptide of SEQ ID NO: 35] it was 0.085 nM; in that of B2, 0.016 nM; in that of B3, 0.019 nM.
As to H[Aib]QGTFTSDYSKYLDEKRA[Aib]EFVC(40K‑TE PEG)WLMDT-NH2 [peptide of SEQ ID NO: 15], the “EC50 (nM) at GLP-1 receptor” value stood at 0.071 nM.
